From patent US20200360486A1

How the values were obtained:
[1] = biological target: Cy3-conjugated K9-C-peptide (C-peptide bound to the elastin-like polypeptide composed of 9 [(VPGVG)11(VPGKG)1(VPGVG)1] repeating units), as hydrogel on an amine array; assay: cell-based or functional assay
[2] = tested on: Cy3-conjugated K9-C-peptide (C-peptide bound to the elastin-like polypeptide composed of 9 [(VPGVG)11(VPGKG)1(VPGVG)1] repeating units), as hydrogel on an amine array

Sequence of Cy3-conjugated K9-C-peptide (C-peptide bound to the elastin-like polypeptide composed of 9 [(VPGVG)11(VPGKG)1(VPGVG)1] repeating units), as hydrogel on an amine array (chain, as listed by the source): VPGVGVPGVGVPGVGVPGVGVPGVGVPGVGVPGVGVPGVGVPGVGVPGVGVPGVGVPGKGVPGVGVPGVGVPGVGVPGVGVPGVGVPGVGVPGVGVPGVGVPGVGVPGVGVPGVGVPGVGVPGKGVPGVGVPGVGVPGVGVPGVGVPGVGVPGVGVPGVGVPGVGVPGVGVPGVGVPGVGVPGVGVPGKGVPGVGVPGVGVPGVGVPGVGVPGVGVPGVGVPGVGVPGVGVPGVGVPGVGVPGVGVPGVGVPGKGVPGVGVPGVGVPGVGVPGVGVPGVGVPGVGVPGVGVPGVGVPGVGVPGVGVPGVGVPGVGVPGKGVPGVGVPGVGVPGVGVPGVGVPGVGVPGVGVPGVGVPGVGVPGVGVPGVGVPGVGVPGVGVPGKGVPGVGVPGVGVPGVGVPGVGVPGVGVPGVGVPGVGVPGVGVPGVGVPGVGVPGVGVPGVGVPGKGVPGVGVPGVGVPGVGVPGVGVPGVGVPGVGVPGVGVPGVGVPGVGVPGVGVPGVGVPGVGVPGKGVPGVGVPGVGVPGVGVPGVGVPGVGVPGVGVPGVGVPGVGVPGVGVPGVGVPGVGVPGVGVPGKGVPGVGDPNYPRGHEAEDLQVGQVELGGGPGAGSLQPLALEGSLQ

Substance | EC50 of on-chip degradation of Cy3-conjugated K9-C-peptide hydrogel versus protease concentration [1] [U/ml] | highest degradation rate of the hydrogel, at 120 min (time course) [2] [% at 120 min] | hydrogel degraded after the first elastase-2 treatment (repeated every 30 min) [2] | maximum degradation rate, after the fifth elastase-2 treatment [2]
elastase-2 | – | 72.3 | 48.6+/-0.8% | 89.7+/-0.2%
elastase-2 (enzyme) | 0.23 | – | – | –
trypsin (enzyme) | 125 | – | – | –

Second part, led by results:

EC50 of on-chip degradation of Cy3-conjugated K9-C-peptide hydrogel versus protease concentration [1] [U/ml] | Substance | highest degradation rate of the hydrogel, at 120 min (time course) [2] [% at 120 min] | hydrogel degraded after the first elastase-2 treatment (repeated every 30 min) [2] | maximum degradation rate, after the fifth elastase-2 treatment [2]
0.17 | collagenase-2 (enzyme) | – | – | –
510 | pepsin (enzyme) | – | – | –
